In publication PMC8655018 (Nature Communications, 2021):

How the values were obtained:
[1] = biological target: BamA (subunit of E. coli BAM) (E. coli, UniProt P0A940 21-810); experiment: cryo-EM structure; MBP-EspP (3.6 μM, from urea) folded in vitro overnight into BAM nanodiscs (1.8 μM) with SurA (25.2 μM) in 1x TBS with 1 M urea, then SEC (Superdex 200 Increase); 7.0 Å map; details: both partners purified
[2] = biological target: β-barrel assembly machinery (BAM), five components BamA-E, inserted in nanodiscs (E. coli, UniProt P0A940 21-810; P77774 20-392; P0A903 25-344; P0AC02 20-245; P0A937 20-113); experiment: as above; details: both partners purified

B1: MBP-EspP (residues 748–1300 of EspP) with an N-terminal 6xHis tag (domain or fragment)
chain: SGMFSTSDISISGNLSMTGNPDKDNKFEPSIYLNDASYLLTDDSARLVAKNKASVVGDIHSTKSASIMFGHDESDLSQLSDRTSKGLALGLLGGFDVSYRGSVNAPSASATMNNTWWQLTGDSALKTLKSTNSMVYFTDSANNKKFHTLTVDELATSNSAYAMRTNLSESDKLEVKKHLSGENNILLVDFLQKPTPEKQLNIELVSAPKDTNENVFKASKQTIGFSDVTPVITTRETDDKITWSLTGYNTVANKEATRNAAALFSVDYKAFLNEVNNLNKRMGDLRDINGEAGAWARIMSGTGSASGGFSDNYTHVQVGVDKKHELDGLDLFTGFTVTHTDSSASADVFSGKTKSVGAGLYASAMFDSGAYIDLIGKYVHHDNEYTATFAGLGTRDYSTHSWYAGAEAGYRYHVTEDAWIEPQAELVYGSVSGKQFAWKDQGMHLSMKDKDYNPLIGRTGVDVGKSFSGKDWKVTARAGLGYQFDLLANGETVLRDASGEKRIKGEKDSRMLMSVGLNAEIRDNVRFGLEFEKSAFGKYNVDNAVNANFRYSF
notes: also called MBP-EspP substrate
binding result [1]: binds
binding result [2]: binds
